Data published in article PMC3485628.
Like-named read-outs stand apart in the source and are kept apart here.

How the values were obtained:
[1] = target: recombinant human perlecan domain 1 proteoglycan rhPln.247 (human) (UniProt P98160); assay: ELISA; rhPln.247 coated directly on polystyrene microtiter wells overnight at 4°C in PBS/N3 at about 1-2 ug/ml; rhBMP-2 or rhBMP-7 serially diluted; retained BMP detected with biotinylated anti-BMP antibodies; background without rhPln.247 subtracted; apparent Kd
[2] = target: recombinant human perlecan domain 1 proteoglycan rhPln.247 (human) (UniProt P98160); assay: ELISA; capture antibody CSI 001-71 (anti-Pln.D1) coated, then rhPln.247 (1 ug/ml) or HSPG, then dilutions of rhBMP-2; retained BMP detected with anti-BMP antibodies; background subtracted; apparent Kd
[3] = target: a commercial source of HSPG; assay: as above
[4] = target: a commercial source of HSPG; assay: as above; remark: listed apart in the source
[5] = target: recombinant human perlecan domain 1 proteoglycan rhPln.247 (human) (UniProt P98160); assay: ELISA; rhPln.247 coated directly on polystyrene microtiter wells overnight at 4°C in PBS/N3 at about 1-2 ug/ml; rhBMP-2 or rhBMP-7 serially diluted; retained BMP detected with biotinylated anti-BMP antibodies; background without rhPln.247 subtracted; apparent Kd; remark: listed apart in the source

Sequence of recombinant human perlecan domain 1 proteoglycan rhPln.247 (human) (P98160 22-247): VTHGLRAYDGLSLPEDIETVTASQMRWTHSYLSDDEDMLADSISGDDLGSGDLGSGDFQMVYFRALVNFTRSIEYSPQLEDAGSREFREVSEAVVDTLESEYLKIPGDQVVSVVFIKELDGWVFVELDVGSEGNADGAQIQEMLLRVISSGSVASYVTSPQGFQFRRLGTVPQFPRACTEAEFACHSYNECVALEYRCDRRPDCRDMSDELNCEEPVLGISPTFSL
Sequence of recombinant human bone morphogenetic protein-2 (P12643 283-396): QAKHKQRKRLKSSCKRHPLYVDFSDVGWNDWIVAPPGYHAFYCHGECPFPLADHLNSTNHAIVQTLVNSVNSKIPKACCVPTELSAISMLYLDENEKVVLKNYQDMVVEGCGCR

Kd [1]: 0.4 nM | Kd [2]: 0.6 nM | Kd [3]: 0.15 nM | Kd [4]: 150 nM | Kd [5]: 0.573 nM
Substance: recombinant human bone morphogenetic protein-2 (from UniProt P12643 283-396) (ligand)
